Measured values from patent US11661461B2, “Phospho-Rab antibodies, assays and methods of use thereof” (Denali Therapeutics Inc., priority 2017, dated 2023).
Positions count from the first letter of the chain named. Each block holds one molecule with its values, some of them ahead of it.

Tests used:
LRRK2 = target: T1, LRRK2 (Rattus norvegicus, UniProt F1LNJ1); assay: 10-day oral dosing study in rats, pT73-Rab10 and pS935-LRRK2 western blot; format: in vivo; conditions: for pT73-Rab10, Brain / pT73-Rab10, Lung / pS935-LRRK2, Brain / pS935-LRRK2, Lung: rats, daily oral 10 days, mean with SEM; for pT73-Rab10, Brain / pT73-Rab10, Lung: normalized to actin and vehicle control group; for pS935-LRRK2, Brain / pS935-LRRK2, Lung: normalized to vinculin and vehicle control group
T1 construct: from tissue; host or cells: rat brain and lung (in vivo dosing)
T1 sequence (F1LNJ1 1-2526): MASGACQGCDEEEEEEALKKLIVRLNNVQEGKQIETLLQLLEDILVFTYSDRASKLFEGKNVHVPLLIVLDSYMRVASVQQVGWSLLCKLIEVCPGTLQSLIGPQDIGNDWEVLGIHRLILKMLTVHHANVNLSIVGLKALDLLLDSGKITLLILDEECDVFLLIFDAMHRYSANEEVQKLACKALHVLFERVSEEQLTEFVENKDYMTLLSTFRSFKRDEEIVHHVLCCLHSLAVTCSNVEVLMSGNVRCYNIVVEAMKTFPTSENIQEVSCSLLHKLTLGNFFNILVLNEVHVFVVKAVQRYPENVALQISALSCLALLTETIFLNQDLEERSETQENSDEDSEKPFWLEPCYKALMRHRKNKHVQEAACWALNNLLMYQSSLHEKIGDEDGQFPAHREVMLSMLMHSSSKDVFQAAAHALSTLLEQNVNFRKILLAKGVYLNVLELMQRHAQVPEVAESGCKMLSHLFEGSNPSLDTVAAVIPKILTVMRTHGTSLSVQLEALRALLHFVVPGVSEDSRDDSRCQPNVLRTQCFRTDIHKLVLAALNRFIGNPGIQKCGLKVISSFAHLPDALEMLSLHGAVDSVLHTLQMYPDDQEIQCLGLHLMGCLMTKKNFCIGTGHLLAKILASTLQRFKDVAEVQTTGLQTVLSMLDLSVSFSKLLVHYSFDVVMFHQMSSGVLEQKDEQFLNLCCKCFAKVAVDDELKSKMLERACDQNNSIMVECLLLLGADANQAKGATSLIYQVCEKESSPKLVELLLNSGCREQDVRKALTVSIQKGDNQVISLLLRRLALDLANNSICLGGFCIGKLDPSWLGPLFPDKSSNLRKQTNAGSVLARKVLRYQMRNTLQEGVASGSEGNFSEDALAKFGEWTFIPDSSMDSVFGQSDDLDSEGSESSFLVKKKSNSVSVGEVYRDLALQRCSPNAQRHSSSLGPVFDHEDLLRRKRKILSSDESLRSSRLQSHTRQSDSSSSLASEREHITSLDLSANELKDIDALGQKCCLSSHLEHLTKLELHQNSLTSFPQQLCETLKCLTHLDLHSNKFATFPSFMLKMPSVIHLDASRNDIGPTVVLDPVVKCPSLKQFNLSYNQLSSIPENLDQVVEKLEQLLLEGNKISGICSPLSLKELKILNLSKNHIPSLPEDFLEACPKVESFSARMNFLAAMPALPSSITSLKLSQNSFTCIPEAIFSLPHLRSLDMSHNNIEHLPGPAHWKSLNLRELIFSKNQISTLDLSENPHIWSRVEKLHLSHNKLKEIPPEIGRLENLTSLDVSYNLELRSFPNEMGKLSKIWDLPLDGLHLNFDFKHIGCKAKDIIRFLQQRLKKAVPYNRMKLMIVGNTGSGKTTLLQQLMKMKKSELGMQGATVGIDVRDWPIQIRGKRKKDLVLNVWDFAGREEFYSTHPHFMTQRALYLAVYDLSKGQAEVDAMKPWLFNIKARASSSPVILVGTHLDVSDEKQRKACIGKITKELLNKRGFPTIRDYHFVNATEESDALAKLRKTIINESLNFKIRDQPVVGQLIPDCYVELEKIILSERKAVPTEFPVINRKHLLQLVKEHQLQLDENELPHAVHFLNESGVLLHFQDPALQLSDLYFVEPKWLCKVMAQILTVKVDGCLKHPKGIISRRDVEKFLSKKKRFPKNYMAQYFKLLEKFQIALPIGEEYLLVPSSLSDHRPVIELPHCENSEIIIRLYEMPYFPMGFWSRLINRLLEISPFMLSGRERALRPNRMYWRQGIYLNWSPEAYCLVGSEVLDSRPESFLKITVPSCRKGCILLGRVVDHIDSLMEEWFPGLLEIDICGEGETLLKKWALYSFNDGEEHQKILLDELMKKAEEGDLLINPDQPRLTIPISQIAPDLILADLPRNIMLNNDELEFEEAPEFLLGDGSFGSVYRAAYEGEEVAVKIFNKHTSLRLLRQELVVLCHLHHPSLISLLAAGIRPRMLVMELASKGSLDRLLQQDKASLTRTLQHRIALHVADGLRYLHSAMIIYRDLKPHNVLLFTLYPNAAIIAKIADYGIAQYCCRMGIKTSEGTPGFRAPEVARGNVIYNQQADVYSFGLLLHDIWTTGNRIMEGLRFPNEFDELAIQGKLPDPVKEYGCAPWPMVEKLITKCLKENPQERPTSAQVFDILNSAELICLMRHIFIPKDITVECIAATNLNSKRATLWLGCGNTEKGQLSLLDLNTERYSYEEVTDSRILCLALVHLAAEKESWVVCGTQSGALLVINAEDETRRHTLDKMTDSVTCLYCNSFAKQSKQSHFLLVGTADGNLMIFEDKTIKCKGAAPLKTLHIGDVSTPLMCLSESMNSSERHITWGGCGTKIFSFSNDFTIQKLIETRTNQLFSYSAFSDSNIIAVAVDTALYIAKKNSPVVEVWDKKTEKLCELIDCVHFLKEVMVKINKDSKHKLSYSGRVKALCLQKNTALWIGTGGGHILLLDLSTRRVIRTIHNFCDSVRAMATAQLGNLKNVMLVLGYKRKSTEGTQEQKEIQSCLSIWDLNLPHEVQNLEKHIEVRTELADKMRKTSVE
Protocol: Dose-dependent inhibition of pT73-Rab10 was tested in a 10-day oral dosing study in rats. Rats were dosed daily with the LRRK2 Inhibitor B at a dose of 10 mg/kg, 30 mg/kg, or 45 mg/kg. Tissues (brain and lung) were harvested, homogenized and analyzed by western blot. […] Signals from dosed groups were normalized to vehicle control group. Data were presented as mean with SEM.

[1] = target: T2, phosphorylated Rab10 in lysates of HEK cells overexpressing LRRK2 (Homo sapiens, UniProt P61026); assay: Sandwich ELISA (diagnostic), HEK cells overexpressing LRRK2; format: binding; conditions: for Sandwich ELISA (diagnostic), Ratio: DMSO / LRRK2 inhibitor A RLU; for Sandwich ELISA (diagnostic) HEK cells overexpressing LRRK2, DMSO (RLU mean ± SD): DMSO treated cells; for Sandwich ELISA (diagnostic) HEK cells overexpressing LRRK2, LRRK2 inhibitor A (RLU mean ± SD): cells treated with LRRK2 inhibitor A
T2 construct: expressed in transfected cells; host or cells: HEK cells overexpressing LRRK2
T2 sequence (P61026 1-200): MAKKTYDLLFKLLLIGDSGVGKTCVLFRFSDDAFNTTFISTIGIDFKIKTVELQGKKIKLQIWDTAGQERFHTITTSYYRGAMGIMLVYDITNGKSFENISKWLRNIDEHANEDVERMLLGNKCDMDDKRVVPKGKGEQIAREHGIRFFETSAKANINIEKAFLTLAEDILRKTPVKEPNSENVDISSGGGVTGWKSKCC
Protocol: Sandwich ELISA (Diagnostic) with Anti-Phospho-Rab10 Antibody as the Capture Antibody:
ELISA plates were prepared by coating white Nunc MaxiSorp 384 well plates (Thermo Fisher #460372/Sigma #P6491) with capture antibody for 1 hour at room temperature on a shaking platform. The capture antibody was purified anti-phospho-Rab10 clone 19-4 diluted to 1 ug/mL in carbonate-bicarbonate buffer, and 15 uL/well of coating solution was added to the plate before incubation. Plates were then washed 3× with TBST on a BioTek plate washer. For all subsequent blocking/incubation steps, Pierce Starting Block T20 (TBS) was used (Thermo Fisher #37543). Plates were blocked […] in this solution using 80 uL/well and washed 3× as before. Afterwards samples of cell lysates were added (neat with no dilution) using 30 uL/well and incubated 1 hour at room temperature on a shaking platform. After another 3× wash detection antibody (Creative Diagnostics DCABH 13141, or Abcam, ab104859, 2 ug/mL) was added using 30 uL/well. After 60 minute incubation at room temperature and washing 3×, the secondary anti-species conjugate was added (anti-rabbit HRP antibody (Jackson ImmunoResearch 111-035-144) diluted 1:20000 in assay diluent) at 30 uL/well. After a 60 minute incubation, plates were washed 3× as before. The HRP substrate (Supersignal ELISA Femto HRP substrate—Thermo Fisher #37075) was prepared during this time by mixing both components and equilibrating to room temperature. 50 uL/well of substrate was added to plates, which then were covered and briefly incubated for 1-2 minutes on a shaker platform. Afterwards plates were read on the Synergy plate reader to measure relative light units (RLU).
Sandwich ELISA (Diagnostic) with Anti-Rab10 (Total) Antibody as the Capture Antibody:
ELISA plates were prepared by coating white Nunc MaxiSorp 384 well plates (Thermo Fisher #460372/Sigma # P6491) with capture antibody overnight at 4° C. on a shaking platform. The capture antibodies (anti-Rab10 antibody from either Creative Diagnostics, DCABH-13141, or Abcam, ab104859) were diluted to […] (or 1:100 if the concentration not known) in carbonate-bicarbonate buffer, and 15 uL/well of coating solution was added to the plate before incubation. After this plates were washed 3× with TBST on a BioTek plate washer. For all subsequent blocking/incubation steps, Pierce Starting Block (TBS) (no Tween added) was used (Thermo Fisher #37542). Plates were blocked for 1 hour at room temperature in this solution using 80 uL/well and washed 3× as before. Afterwards samples were added (with lysates being diluted 1:20 in the assay diluent) using 30 uL/well and incubated 2 hours at room temperature on a shaking platform. After another 3× wash detection antibodies were added (diluted to 1 ug/mL for purified antibodies or 1:2 for supernatants) using 30 uL/well. After 90 minute incubation at room temperature and washing 3× the secondary anti-species conjugate was added (anti-rabbit HRP antibody (Jackson ImmunoResearch 111-035-144) diluted 1:20000 in assay diluent) at 30 uL/well. After a 45 minute incubation plates were washed 3× as before. The HRP substrate (Supersignal ELISA Femto HRP substrate—Thermo Fisher #37075) was prepared during this time by mixing both components and equilibrating to room temperature. 50 uL/well of substrate was added to plates, which then were covered and briefly incubated for 1-2 minutes on a shaker platform. Afterwards plates were read on the Synergy plate reader to measure relative light units (RLU).

[2] = target: T3, endogenous phosphorylated Rab10 in human PBMC (Homo sapiens, UniProt P61026); assay: Western blot of human PBMC with anti-pT73-Rab10 antibodies; format: binding; conditions: for detection of endogenous phosphorylated Rab10 signals in human PBMC by western blot: antibody at 1 ug/ml; for Western blot Human PBMC Ratio of DMSO/LRRK2 inhibitor A (mean ± SEM): band intensity normalized with Actin control for each of DMSO and LRRK2 inhibitor A, antibody 1 ug/ml
T3 construct: Strong endogenous phosphorylated Rab10 or phosphorylated Rab8a in human PBMC; host or cells: human PBMC
T3 sequence (P61026 1-200): T2 sequence (P61026 1-200)

B1: Clone 133-2: anti-phosphorylated (pT73) Rab10 rabbit monoclonal antibody; VH SEQ ID NO:31, VL SEQ ID NO:35 (antibody, V domains shown)
VH: METGLRWLLLVAVLKGVQCQEQLVESGGGLVQPEGSLTLTCKASGFDLSSHYYMCWVRQAPGKGLEWIVCISNGSGNTYYASWAKGRFTISKTSSTTVTLHMTSLTVADTATYFCARNFGSNYGDAFDPWGPGTLVTVSS
VL: MDTRAPTQLLGLLLLWLPGATFAQVLTQTPSPVSAAVGGTVTISCQSSKSVYSNNYLSWYQQKPGQPPKLLIYSASILASGVPSRFSGSGSGTQFTLTISGVQCDDAATYYCQGSYAGSGWYIGFGGGTEVVVK
Sandwich ELISA (diagnostic), Ratio [1]: 2.25
Sandwich ELISA (diagnostic) HEK cells overexpressing LRRK2, DMSO (RLU mean ± SD) [1]: 18605 ± 4874 RLU
Sandwich ELISA (diagnostic) HEK cells overexpressing LRRK2, LRRK2 inhibitor A (RLU mean ± SD) [1]: 8265 ± 1428 RLU

B2: Clone 5: anti-phosphorylated (pT73) Rab10 rabbit monoclonal antibody; VH SEQ ID NO:1, VL SEQ ID NO:5 (antibody, V domains shown)
VH: METGLRWLLLVAVLKGVQCQSVEESGGRLVTPGTPLTLTCTVSGFSLSSYAMVWVRQAPGKGLEYIGLISRSGVTYYATWAKGRFTISKASTTVDLKIASPTTGDTATYFCVRDYDINGWSGFTIWGPGTLVTVSA
VL: MDTRAPTQLLGLLLWLPGAICDPVMTQTPSSTSAAVGGTVTINCQSSQSVYGNNYFSWYQQKPGQPPKLLIYKASTLASGVPSRFKGSGSGTQFTLTISDLECDDAATYYCAGAASDTRFFGGGTELVVN
Sandwich ELISA (diagnostic), Ratio [1]: 23.63
Sandwich ELISA (diagnostic) HEK cells overexpressing LRRK2, DMSO (RLU mean ± SD) [1]: 85175 ± 16412 RLU
Sandwich ELISA (diagnostic) HEK cells overexpressing LRRK2, LRRK2 inhibitor A (RLU mean ± SD) [1]: 3604 ± 1165 RLU
detection of endogenous phosphorylated Rab10 signals in human PBMC by western blot [2]: detected endogenous phosphorylated Rab signals
Western blot Human PBMC Ratio of DMSO/LRRK2 inhibitor A (mean ± SEM) [2]: 3.45 ± 0.53

B4: Clone 19: anti-phosphorylated (pT73) Rab10 rabbit monoclonal antibody; VH SEQ ID NO:11, VL SEQ ID NO:13 (antibody, V domains shown)
VH: B2 VH with I117S, N118A
VL: MDTRAPTQLLGLLLLWLPGAICDPVMTQTPSSTSAAVGGTVTINCQSSQSVYGNNYLSWYQQKPGQPPKLLIYKASTLASGVPSRSVGSGSGTQFTLTISDLECDDAATYYCAGAASDTRFFGGGTELVVN
detection of endogenous phosphorylated Rab10 signals in human PBMC by western blot [2]: detected endogenous phosphorylated Rab signals
Western blot Human PBMC Ratio of DMSO/LRRK2 inhibitor A (mean ± SEM) [2]: 3.39 ± 0.89

B5: Clone 247-8: anti-phosphorylated (pT73) Rab10 rabbit monoclonal antibody; VH SEQ ID NO:47, VL SEQ ID NO:51 (antibody, V domains shown)
VH: B2 VH with V53G, L68I, V74I, K97R, G104E, Y109F, I117S, N118S, T124N, A136L
VL: MDTRAPTQLLGLLLLWLPGAICDPVMTQTPSSTSAAVGGTVTINCQSSQSVYGNNYLSWFQQKPGQPPKLLIYKASTLASGVPSRFKGSGSGTQFTLTISGVQCDDAATYYCAGAYSDNRVFGGGTEVVVK
Sandwich ELISA (diagnostic), Ratio [1]: 7.20
Sandwich ELISA (diagnostic) HEK cells overexpressing LRRK2, DMSO (RLU mean ± SD) [1]: 13096 ± 1715 RLU
Sandwich ELISA (diagnostic) HEK cells overexpressing LRRK2, LRRK2 inhibitor A (RLU mean ± SD) [1]: 1820 ± 276 RLU

B6: Clone 153-2: anti-phosphorylated (pT73) Rab10 rabbit monoclonal antibody; VH SEQ ID NO:39, VL SEQ ID NO:43 (antibody, V domains shown)
VH: METGLRWLLLVAVLKGVQCQSVEESGGRLVTPGTPLTLTCTASGFSLSTYYMSWVRQAPGKGLEWIGIINTGGIVHYANWVRGRFTISKTSTTVDLRITSPTAEDTATYFCARAYSADRLDLWGQGTLVTVSS
VL: MDTRAPTQLLGLLLLWLPGATFAAVLTQTPSPVSAAVGGTVTISCQSSESVYGNNRLSWYQQKPGQPPKLLMYYASTLASGVPSRFRGSGSGTQFTLTISDVQCDDAASYYCLGGYKRDSNNAFGGGTEVVVK
Sandwich ELISA (diagnostic), Ratio [1]: 141.26
Sandwich ELISA (diagnostic) HEK cells overexpressing LRRK2, DMSO (RLU mean ± SD) [1]: 596606 ± 80346 RLU
Sandwich ELISA (diagnostic) HEK cells overexpressing LRRK2, LRRK2 inhibitor A (RLU mean ± SD) [1]: 4223 ± 293 RLU

Now from value to molecule, other results behind:

pT73-Rab10, Brain (LRRK2; High dose (doses 10, 30, 45 mg/kg), N = 5): 0.225 ± 0.0394
pT73-Rab10, Lung (LRRK2; High dose): 0.109 ± 0.0126
pS935-LRRK2, Brain (LRRK2; High dose): 0.04 ± 0.016
pS935-LRRK2, Lung (LRRK2; High dose): 0.076 ± 0.022
pT73-Rab10, Brain (LRRK2; Low dose (doses 10, 30, 45 mg/kg), N = 6): 0.676 ± 0.102
pT73-Rab10, Lung (LRRK2; Low dose): 0.25 ± 0.0126
pS935-LRRK2, Brain (LRRK2; Low dose): 0.693 ± 0.164
pS935-LRRK2, Lung (LRRK2; Low dose): 0.295 ± 0.026
pT73-Rab10, Brain (LRRK2; Medium dose (doses 10, 30, 45 mg/kg), N = 6): 0.268 ± 0.0745
pT73-Rab10, Lung (LRRK2; Medium dose): 0.133 ± 0.0137
pS935-LRRK2, Brain (LRRK2; Medium dose): 0.086 ± 0.021
pS935-LRRK2, Lung (LRRK2; Medium dose): 0.094 ± 0.012
Molecule: CNc1nc(Nc2cn(C(C)(C)C#N)nc2C)ncc1C(F)(F)F [LRRK2 Inhibitor B, 2-methyl-2-(3-methyl-4-(4-(methylamino)-5-(trifluoromethyl)pyrimidin-2-ylamino)-1H-pyrazol-1-yl)propanenitrile]
dephosphorylation of pS935-LRRK2 and pT73-Rab10 (LRRK2; rats, 10, 30 or 45 mg/kg daily oral, 10 days, brain and lung): comparable dose-dependent dephosphorylation

Sandwich ELISA (diagnostic), Ratio [1]: 77.37
Sandwich ELISA (diagnostic) HEK cells overexpressing LRRK2, DMSO (RLU mean ± SD) [1]: 212085 ± 27432 RLU
Sandwich ELISA (diagnostic) HEK cells overexpressing LRRK2, LRRK2 inhibitor A (RLU mean ± SD) [1]: 2741 ± 309 RLU
B3: Clone 256-6: anti-phosphorylated (pT73) Rab10 rabbit monoclonal antibody; VH SEQ ID NO:53, VL SEQ ID NO:56 (antibody, V domains shown)
VH: B2 VH with S49N, I117A
VL: B4 VL with S86F, V87K, E103D, L128V, N131K
